Tests used:
Assay type in all cases: biochemical
[1] = system: polymorphonuclear leucocyte elastase from human sputum; assay: Inhibitory constant (Ki) assay, elastase (Example 26); details: from Table 16
Method: Method for assay is as follow.
Buffer: 0.1M N-(2-hydroxyethyl)piperazine-N'-2-ethanesulfonic acid (HEPES), 1.0M NaCl, 0.1% polyethylene glycol (pH 7.5)
Enzyme solution: the following enzyme was dissolved in the above-mentioned buffer to a concentration 9 times that shown in Table 15.
(§1) A. Polymorphonuclear leucocyte elastase from human sputum (EPC Co., Funakoshi Yakuhin)
Substrate solution: for the enzymes A and B, the following substrate a or b was dissolved in a solution of DMSO+the above-mentioned buffer (1:9), or in DMSO, respectively.
(§2) a. MeO-Suc-Ala-Ala-Pro-Val-pNA (Bachem) […]
To wells of an ELISA 96-well microtiter plate, were added 120 μl of the buffer, 20 μl of a sample solution of (Arg^59 -Ala^107) SLPI obtained in Example 23, and 20 μl of the enzyme solution in this order, an the mixture was reacted at 37° C. for 1 hour. Next, 20 μl of the substrate was added to develop at 25° C. Absorption of the developed color was measured at 405 nm. As a control, SLPI was used.
On the basis of the result thus obtained, an inhibitory constant (Ki) of (Arg^59 -Ala^107) SLPI of the present invention was calculated according to the method of Henderson (Henderson, P. J. F. (1972), Biochem. J. 127, 321-333).

Human plasma kallikrein [2] = target: T1, Human plasma kallikrein (Homo sapiens, UniProt P03952); assay: Assay for kallikrein inhibitory activity (Example 25); details: final concentration up to ×10^-5 M; enzyme 1.0 × 10^-7 M
T1 construct: (7) Human plasma kallikrein (Kabi, Daiichi Kagaku Yakuhin); purchased Kabi (via Daiichi Kagaku Yakuhin); host or cells: human plasma
T1 sequence (P03952 391-638 limits assumed): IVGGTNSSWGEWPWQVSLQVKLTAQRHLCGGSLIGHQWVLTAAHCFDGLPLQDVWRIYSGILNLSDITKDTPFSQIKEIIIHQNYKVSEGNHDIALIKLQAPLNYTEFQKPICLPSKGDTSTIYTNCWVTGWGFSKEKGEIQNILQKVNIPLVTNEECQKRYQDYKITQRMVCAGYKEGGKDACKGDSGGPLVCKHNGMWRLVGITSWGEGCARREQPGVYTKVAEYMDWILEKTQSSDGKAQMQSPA
T1 sequence (P03952 20-390 partner limits assumed): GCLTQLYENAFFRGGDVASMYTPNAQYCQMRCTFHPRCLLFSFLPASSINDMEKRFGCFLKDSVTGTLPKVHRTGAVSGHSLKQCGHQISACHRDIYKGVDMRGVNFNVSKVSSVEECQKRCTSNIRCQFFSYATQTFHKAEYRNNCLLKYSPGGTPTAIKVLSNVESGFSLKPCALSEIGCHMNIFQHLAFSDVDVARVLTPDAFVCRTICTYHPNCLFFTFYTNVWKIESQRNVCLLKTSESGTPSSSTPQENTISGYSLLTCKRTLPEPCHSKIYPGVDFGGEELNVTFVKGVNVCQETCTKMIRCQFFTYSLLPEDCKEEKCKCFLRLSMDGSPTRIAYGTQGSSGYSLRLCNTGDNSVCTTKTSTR
Method: H. Human plasma kallikrein (Protogene, Funakoshi Yakuhin)
Kallikrein: 50 mM Tris-HCl, 361 mM NaCl, 0.01 mg/ml polybrene (pH 7.8) […]
(§3) Substrate solution: for the enzymes F, G, H and I, the following substrate f, g, h or i, respectively, was dissolved to a final concentration shown in Table 14.
h. H.D-Pro-Phe-Arg-pNA (Kabi Vitram)
(§4) To wells of an ELISA 96-well microtiter plate, were added a solution of (Arg^59 -Ala^107) SLPI obtained in Example 23 and then the enzyme solution, and the mixture was incubated at 37° C. for 10 minutes. Next, the substrate solution was added to develop the color, whose absorption was then measured at 405 nm. As a control, SLPI was used.

Bovine spleen trypsin = target: T2, Bovine spleen trypsin (Bos taurus, UniProt P00760); assay: Assay for trypsin inhibitor activity (Example 24); details: enzyme 2 × 10^-7 M, substrate 1.0 × 10^-3 M
T2 construct: purchased Sigma
T2 sequence (P00760 24-246): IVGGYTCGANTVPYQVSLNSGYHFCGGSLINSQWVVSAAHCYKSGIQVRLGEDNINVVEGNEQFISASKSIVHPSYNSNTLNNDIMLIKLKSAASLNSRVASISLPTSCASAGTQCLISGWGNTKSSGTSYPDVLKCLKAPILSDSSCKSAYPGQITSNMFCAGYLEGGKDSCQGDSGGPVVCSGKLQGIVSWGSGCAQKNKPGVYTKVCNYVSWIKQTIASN
Method: (§5) The following assay method was used.
(§6) Buffer: 0.1M (2-hydroxyethyl)piperazine-N'-2-ethansulfonic acid (HEPES), 0.5M NaCl, pH 7.5.
(§7) Enzyme concentration: the following enzyme was dissolved in the above-mentioned buffer to a concentration 9 times that shown in Table 12.
B. Bovine spleen trypsin (Sigma)
Substrate solution: for the enzymes A, B, C, D and E, the following substrate a, b, c, d or e, respectively, was dissolved in a solution of DMSO+the above-mentioned buffer (1:9) (note, final concentration of DMSO was 10% in the buffer) to a concentration of 9 times that shown in Table 12. […]
(§8) To wells of an ELISA 96-well microtiter plate, were added 120 μl of the buffer and the 20 μl of a sample solution of (Arg^59 -Ala^107) SLPI obtained in Example 23, followed by 20 μl of the enzyme solution. The mixture was reacted at 37° C. for 10 minutes. Next, 20 μl of the substrate was added, and developed at 37° C. The developed color was measured by absorption at 405 nm.
(§9) As a control the same procedure was carried out using SLPI.

[3] = target: T3, polymorphonuclear leucocyte elastase from human sputum (Homo sapiens, UniProt P08246); assay: Assay for elastase inhibitor activity (Example 24); details: enzyme 2 × 10^-8 M, substrate 3.0 × 10^-4 M
T3 construct: Polymorphonuclear leukocyte elastase from human sputum (EPC Co; Funakoshi Yakuhin); purchased EPC Co. (via Funakoshi Yakuhin); host or cells: human sputum
T3 sequence (P08246 30-267): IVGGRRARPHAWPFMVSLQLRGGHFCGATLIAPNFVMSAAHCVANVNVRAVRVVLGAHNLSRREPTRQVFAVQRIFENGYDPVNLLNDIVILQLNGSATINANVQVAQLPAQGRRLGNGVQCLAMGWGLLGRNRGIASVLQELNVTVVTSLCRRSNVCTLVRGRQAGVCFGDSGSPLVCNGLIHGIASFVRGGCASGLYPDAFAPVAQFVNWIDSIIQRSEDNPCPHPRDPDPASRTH
Method: as §5, §6, §7, §1
Substrate solution: for the enzymes A, B, C, D and E, the following substrate a, b, c, d or e, respectively, was dissolved in a solution of DMSO+the above-mentioned buffer (1:9) (note, final concentration of DMSO was 10% in the buffer) to a concentration of 9 times that shown in Table 12.
as §2, §8, §9

Porcine FXa = assay: Assay for Fxa inhibitory activity (Example 25); details: final concentration up to ×10^-5 M; enzyme 1.0 × 10^-8 M
Method: I. Porcine FXa (Daichi Seiyaku)
(§10) Buffer: Buffer solution for each enzyme is as follow. Thrombin and FXa: 50 mM Tris-HCl, 7.5 mM EDTA-2Na, 175 mM NaCl (pH 8.4) […]
as §3
i. Ratio 1:1 mixture of the following compounds: [drawing 5]
as §4

Human plasma plasmin [4] = target: T4, Human plasma plasmin (Homo sapiens, UniProt P00747); assay: Assay for plasmin inhibitory activity (Example 25); details: final concentration up to ×10^-5 M; enzyme 1.0 × 10^-7 M
T4 construct: (6) Human plasma plasmin (Kabi, Daiichi Kagaku Yakuhin); purchased Kabi (via Daiichi Kagaku Yakuhin); host or cells: human plasma
T4 sequence (P00747 581-810 limits assumed): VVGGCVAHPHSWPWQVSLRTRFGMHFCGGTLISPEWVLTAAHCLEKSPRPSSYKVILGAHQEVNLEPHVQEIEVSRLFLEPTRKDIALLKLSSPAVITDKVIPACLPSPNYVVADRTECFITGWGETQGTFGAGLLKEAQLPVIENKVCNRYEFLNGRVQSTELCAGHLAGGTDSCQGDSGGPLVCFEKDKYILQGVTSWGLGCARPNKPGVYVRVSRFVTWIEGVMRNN
T4 sequence (P00747 97-580 partner limits assumed): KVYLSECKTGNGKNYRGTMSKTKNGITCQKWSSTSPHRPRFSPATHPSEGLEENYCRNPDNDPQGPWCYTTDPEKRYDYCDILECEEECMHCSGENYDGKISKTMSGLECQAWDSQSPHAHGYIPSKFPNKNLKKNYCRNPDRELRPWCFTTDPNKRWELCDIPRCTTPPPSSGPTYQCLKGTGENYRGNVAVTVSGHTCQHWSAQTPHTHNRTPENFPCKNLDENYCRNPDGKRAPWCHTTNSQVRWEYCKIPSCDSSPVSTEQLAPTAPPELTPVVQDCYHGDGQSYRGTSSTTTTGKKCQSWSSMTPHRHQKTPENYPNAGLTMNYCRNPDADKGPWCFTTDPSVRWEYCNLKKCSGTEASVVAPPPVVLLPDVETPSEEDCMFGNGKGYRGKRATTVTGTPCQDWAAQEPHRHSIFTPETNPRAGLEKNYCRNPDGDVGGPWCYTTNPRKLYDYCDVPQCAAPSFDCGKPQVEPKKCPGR
Method: G. Human plasma plasmin (sigma)
Plasmin: 50 mM Tris-HCl, 100 mM NaCl (pH 7.4) […]
as §3
g. H.D-Val-Leu-Lys-pNA (Kabi Vitrum)
as §4

Human plasma thrombin [5] = target: T5, Human plasma thrombin (Homo sapiens, UniProt P00734); assay: Assay for thrombin inhibitory activity (Example 25); details: final concentration up to ×10^-5 M; enzyme 3 × 10^-9 M
T5 construct: (5) Human plasma thrombin (Kabi, Daiichi Kagaku Yakuhin); purchased Kabi (via Daiichi Kagaku Yakuhin); host or cells: human plasma
Method: F. Human plasma thrombin (Sigma)
as §10, §3
f. H.D-Phe-Pip-Arg-pNA (Kabi Vitrum)
as §4

Human plasma thrombin [6] = target: T5, Human plasma thrombin; assay: Serine protease inhibitory assay, Example 12: thrombin; details: read-out: concentration of inhibitory protein which exhibits a 50% inhibition; enzyme 10^-11 M; H-D-Phe-Pip-Arg-pNA 0.1 mM; 37° C.
Method: (§11) Assay of serine protease inhibitory activity of active-type (Asn^55 -Ala^107) SLPI fragment polypeptide
(§12) The active-type (Asn^55 -Ala^107) SLPI fragment polypeptide obtained by refolding by the procedure shown in Example 11 as measured to determine its inhibitory activity to various serine proteases. The assay result thereof is shown as follows.
(§13) Enzyme solution: The following enzymes were dissolved in the above-mentioned buffer solutions at a concentration ten-times higher than the concentration shown in Table 4.
(5) Human plasma thrombin (Kabi, Daiichi Kagaku Yakuhin)
(§14) Substrate solution: For the above-mentioned enzymes (1) to (7), the following substrates (1) to (7), respectively, were dissolved in dimethyl sulfoxyde to a concentration of 10 mM to prepare stock solutions, which were then dissolved in the above-mentioned buffer solution to concentration ten-times higher than final concentrations, to prepare substrate solutions. […]
(§15) To each well of a 96-well ELISA microplate were added 140 μl of the above-mentioned buffer, 20 μl of a test solution, and 20 μl of the enzyme solution, and the mixture was stirred at 37° C. for 30 minutes. Next, 20 μl of the substrate solution was added to the well, the mixture was stirred at 37° C. for one hour to develop same, and the absorbance at 405 nm was measured.

[7] = target: T6, polymorphonuclear leukocyte elastase from human sputum (Homo sapiens, UniProt P08246); assay: Serine protease inhibitory assay, Example 12: human elastase; details: read-out: concentration of inhibitory protein which exhibits a 50% inhibition; enzyme 10^-9 M; MeO-Suc-Ala-Ala-Pro-Val-pNA 0.3 mM; 37° C.
T6 construct: Polymorphonuclear leukocyte elastase from human sputum (EPC Co; Funakoshi Yakuhin); purchased EPC Co. (via Funakoshi Yakuhin); host or cells: human sputum
T6 sequence (P08246 30-267): T3 sequence (P08246 30-267)
Method: as §15

Human plasma plasmin [8] = target: T4, Human plasma plasmin; assay: Serine protease inhibitory assay, Example 12: plasmin; details: read-out: concentration of inhibitory protein which exhibits a 50% inhibition; enzyme 10^-8 M; H-D-Val-Leu-Lys-pNA 0.1 mM; 37° C.
Method: as §11, §12, §13
(6) Human plasma plasmin (Kabi, Daiichi Kagaku Yakuhin)
as §14, §15

[9] = target: T7, Calf pancreatic chymotrypsin (Bos taurus, UniProt P00766); assay: Serine protease inhibitory assay, Example 12: chymotrypsin; details: read-out: concentration of inhibitory protein which exhibits a 50% inhibition; enzyme 10^-8 M; Suc-Ala-Ala-Pro-Phe-pNA 0.1 mM; 37° C.
T7 construct: (3) Calf pancreatic chymotrypsin (Sigma); purchased Sigma; host or cells: calf pancreas
Method: as §11, §12, §13
(3) Calf pancreatic chymotrypsin (Sigma)
as §14, §15

[10] = target: T8, Porcine pancreatic elastase (Sus scrofa, UniProt P00772); assay: Serine protease inhibitory assay, Example 12: porcine elastase; details: read-out: concentration of inhibitory protein which exhibits a 50% inhibition; enzyme 6 × 10^-9 M; Suc-Ala-Ala-Ala-pNA 0.1 mM; 37° C.
T8 construct: (4) Porcine pancreatic elastase (Sigma); purchased Sigma; host or cells: porcine pancreas
T8 sequence (P00772 27-266): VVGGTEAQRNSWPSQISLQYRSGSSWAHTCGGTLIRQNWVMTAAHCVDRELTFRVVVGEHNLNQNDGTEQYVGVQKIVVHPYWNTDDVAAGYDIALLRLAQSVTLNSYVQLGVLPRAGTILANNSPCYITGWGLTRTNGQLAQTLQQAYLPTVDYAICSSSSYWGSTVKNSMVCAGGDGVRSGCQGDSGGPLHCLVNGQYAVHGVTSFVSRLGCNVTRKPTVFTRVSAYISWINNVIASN
Method: as §11, §12, §13
(4) Porcine pancreatic elastase (Sigma)
as §14, §15

Human plasma kallikrein [11] = target: T1, Human plasma kallikrein; assay: Serine protease inhibitory assay, Example 12: kallikrein; details: read-out: concentration of inhibitory protein which exhibits a 50% inhibition; enzyme 10^-8 M; H-D-Pro-Phe-Arg-pNA 0.1 mM; 37° C.
Method: as §11, §12, §13
(7) Human plasma kallikrein (Kabi, Daiichi Kagaku Yakuhin)
as §14, §15

Calf pancreatic trypsin = target: T9, Calf pancreatic trypsin (Bos taurus, UniProt P00760); assay: Serine protease inhibitory assay, Example 12: trypsin; details: read-out: concentration of inhibitory protein which exhibits a 50% inhibition; enzyme 10^-7 M; Bz-Arg-pNA 1.0 mM; 37° C.
T9 construct: (2) Calf pancreatic trypsin (Sigma); purchased Sigma; host or cells: calf pancreas
T9 sequence (P00760 24-246): T2 sequence (P00760 24-246)
Method: as §11, §12, §13
(2) Calf pancreatic trypsin (Sigma)
as §14, §15
Moreover, an inhibitory constant Ki of the present (Asn^55 -Ala^107) SLPI was calculated on the basis of the above data by a method of Dixon, M. and Webb, E. C. (1979), Enzyme, Longman or a method of Henderson, P. J. F. (1972) Biochem. J., 127, 321-333.

Row | relative ratio of inhibitory activity on trypsin to that on elastase (Ki(T)/Ki(E)) [1] | inhibitory activity to kallikrein (Human plasma kallikrein [2]) | IC50 (Bovine spleen trypsin) [nM] | IC50 [3] [nM] | inhibitory activity to plasmin (Human plasma plasmin [4]) | inhibitory activity to thrombin (Human plasma thrombin [5]) | IC50 (Human plasma thrombin [6]) [nM] | IC50 [7] [nM] | IC50 (Human plasma plasmin [8]) [nM] | IC50 [9] [nM] | IC50 [10] [nM] | IC50 (Human plasma kallikrein [11]) [nM] | IC50 (Calf pancreatic trypsin) [nM] | Substance | inhibitory activity to FXa (Porcine FXa)
1 | about 14,000 | did not exhibit inhibitory activity | 2000 | 12 | did not exhibit inhibitory activity | did not exhibit inhibitory activity | – | – | – | – | – | – | – | (Arg^59 -Ala^107) SLPI: polypeptide having an amino acid sequence starting with the 59th Arg and ending at the 107th Ala of SLPI (RKPGKCPVTYGQCLMLNPPNFCEMDGQCKRDLKCCMGMCGKSCVSPVKA) | did not exhibit inhibitory activity
2 | – | – | – | – | – | – | > 2000 | 300 | 5 | 50 | > 2000 | 70 | 100 | Aprotinin | –
3 | – | – | – | – | – | – | > 2000 | – | > 2000 | 2000 | 300 | > 2000 | 200 | α1 -PI: α1 -AT (Sigma), inhibitory protein used as a positive control | –

Source: patent US5851983A, “Elastase inhibitory polypeptide and process for production thereof by recombinant gene technology” (Teijin Limited, priority 1987, dated 1998)
